Measured values taken from patent US20100260668A1 (published 2010).
Where “and” joins values, the source holds several entries; their conditions need not be identical. Equal values may be shown once. Each block holds one binder with its values, some of them ahead of it.

Experiments:
VEGF = target: T1, VEGF (UniProt P15692 27-191, limits assumed); assay: direct bind ELISA, reference antibody
T1 construct: bought antigen coated on the ELISA plate

[1] = target: T2, CD40/FC (CD40 ECD/FC chimera-His tag) (UniProt P25942 21-193, limits assumed); assay: Direct Bind ELISA, antigen on plate
T2 construct: extracellular domain; Bought reagent

CD-19 [2] = target: T3, CD-19 (UniProt P15391 20-291, limits assumed); assay: Direct Bind ELISA, antigen on plate; C-terminal VD
T3 construct: construct unknown
T3 sequence (looked up): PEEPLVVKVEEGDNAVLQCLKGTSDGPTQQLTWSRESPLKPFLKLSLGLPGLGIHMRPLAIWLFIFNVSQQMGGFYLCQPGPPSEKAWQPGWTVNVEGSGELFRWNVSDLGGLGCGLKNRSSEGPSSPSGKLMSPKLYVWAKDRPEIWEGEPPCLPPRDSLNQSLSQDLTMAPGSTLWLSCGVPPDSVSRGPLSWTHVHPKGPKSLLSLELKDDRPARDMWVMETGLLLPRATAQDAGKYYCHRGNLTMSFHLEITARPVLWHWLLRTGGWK

CD-19 [3] = target: T3, CD-19; assay: Direct Bind ELISA, antigen on plate; N-terminal VD
Method: Enzyme Linked Immunosorbent Assays to screen for antibodies that bind a desired target antigen were performed as follows. […] Plates were washed four times with PBS containing 0.02% Tween 20. Plates were blocked by the addition of 300 μL/well blocking solution (non-fat dry milk powder, various retail suppliers, diluted to 2% in PBS) for ½ hour at room temperature. Plates were washed four times after blocking with PBS containing 0.02% Tween 20.
Alternatively, one hundred microliters per well of 10 μg/ml of Histidine (His) tagged desired target antigen (R&D Systems, Minneapolis, Minn.) was added to ELISA plates coated with monoclonal mouse anti-polyHistidine antibody as described above and incubated for 1 hour at room temperature. Wells were washed four times with PBS containing 0.02% Tween 20.
One hundred microliters of antibody or DVD-Ig preparations diluted in blocking solution as described above was added to the desired target antigen plate or desired target antigen/FC fusion plate or the anti-polyHistidine antibody/His tagged desired target antigen plate prepared as described above and incubated for 1 hour at room temperature. Wells are washed four times with PBS containing 0.02% Tween 20.

[4] = target: CD22/FC (Siglec-2 ECD/FC chimera) (UniProt P20273 20-687); assay: Direct Bind ELISA, antigen on plate
[5] = target: CD80/FC (B7-1 ECD/FC chimera) (UniProt P33681 35-242); assay: Direct Bind ELISA, antigen on plate
CD80/FC (B7-1 ECD/FC chimera), sequence (P33681 35-242, change not shown): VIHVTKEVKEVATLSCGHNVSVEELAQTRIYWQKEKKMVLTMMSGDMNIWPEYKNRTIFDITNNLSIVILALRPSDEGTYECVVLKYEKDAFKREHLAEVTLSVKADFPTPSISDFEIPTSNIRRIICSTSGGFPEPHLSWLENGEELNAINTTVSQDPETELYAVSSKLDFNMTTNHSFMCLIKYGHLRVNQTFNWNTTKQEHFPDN

T1 sequence (P15692 other isoform, or with tags, fused parts or gaps limits assumed): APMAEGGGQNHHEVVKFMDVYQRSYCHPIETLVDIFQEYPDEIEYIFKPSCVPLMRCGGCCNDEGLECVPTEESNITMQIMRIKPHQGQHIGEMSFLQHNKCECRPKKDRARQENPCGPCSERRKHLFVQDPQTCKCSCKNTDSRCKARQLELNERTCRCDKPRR
T2 sequence (P25942 21-193 limits assumed, change not shown): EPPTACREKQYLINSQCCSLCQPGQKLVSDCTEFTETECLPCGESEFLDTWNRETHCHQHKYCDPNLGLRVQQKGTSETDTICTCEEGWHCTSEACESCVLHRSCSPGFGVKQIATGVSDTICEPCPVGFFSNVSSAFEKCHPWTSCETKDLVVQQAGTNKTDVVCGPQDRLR

EC50 (VEGF): 35.4 nM and 26.6 nM
B1: AB071 (antibody, human IgG1, kappa, L234A L235A, V domains shown)
VH: EVQLVESGGGLVQPGGSLRLSCAASGFTINASWIHWVRQAPGKGLEWVGAIYPYSGYTNYADSVKGRFTISADTSKNTAYLQMNSLRAEDTAVYYCARWGHSTSPWAMDYWGQGTLVTVSS
VL: DIQMTQSPSSLSASVGDRVTITCRASQVIRRSLAWYQQKPGKAPKLLIYAASNLASGVPSRFSGSGSGTDFTLTISSLQPEDFATYYCQQSNTSPLTFGQGTKVEIKR

EC50 [1]: 0.99 nM
B2: AB009 (anti-CD-40 parent antibody) (antibody, IgG1, V domains shown)
VH: QVQLVESGGGVVQPGRSLRLSCAASGFTFSSYGMHWVRQAPGKGLEWVAVISYEESNRYHADSVKGRFTISRDNSKITLYLQMNSLRTEDTAVYYCARDGGIAAPGPDYWGQGTLVTVSS
VL: DIVMTQSPLSLTVTPGEPASISCRSSQSLLYSNGYNYLDWYLQKPGQSPQVLISLGSNRASGVPDRFSGSGSGTDFTLKISRVEAEDVGVYYCMQARQTPFTFGPGTKVDIRR
notes: HC vector V1 (wild-type hIgG1 constant), LC vector V2 (kappa constant); also called AB009VH; AB009VL

EC50 (CD-19 [2]): 12.9 nM
B3: DVD001 (CD-20 and CD-19 DVD-Ig) (bispecific antibody, IgG1)
VH: QVQLQQPGAELVKPGASVKMSCKASGYTFTSYNMHWVKQTPGRGLEWIGAIYPGNGDTSYNQKFKGKATLTADKSSSTAYMQLSSLTSEDSAVYYCARSTYYGGDWYFNVWGAGTTVTVSAASTKGPQVQLQQSGAELVRPGSSVKISCKASGYAFSSYWMNWVKQRPGQGLEWIGQIWPGDGDTNYNGKFKGKATLTADESSSTAYMQLSSLASEDSAVYFCARRETTTVGRYYYAMDYWGQGTSVTVSS
VL: QIVLSQSPAILSPSPGEKVTMTCRASSSVSYIHWFQQKPGSSPKPWIYATSNLASGVPVRFSGSGSGTSYSLTISRVEAEDAATYYCQQWTSNPPTFGGGTKLEIKRTVAAPDILLTQTPASLAVSLGQRATISCKASQSVDYDGDSYLNWYQQIPGQPPKLLIYDASNLVSGIPPRFSGSGSGTDFTLNIHPVEKVDAATYHCQQSTEDPWTFGGGTKLEIKR
notes: Outer AB001, inner AB006; HC vector V1 (wild-type hIgG1 constant), LC vector V2 (kappa constant); also called DVD001H; DVD001L

EC50 (CD-19 [3]): 0.07 nM
B4: DVD002 (CD-19 and CD-20 DVD-Ig) (bispecific antibody, IgG1)
VH: QVQLQQSGAELVRPGSSVKISCKASGYAFSSYWMNWVKQRPGQGLEWIGQIWPGDGDTNYNGKFKGKATLTADESSSTAYMQLSSLASEDSAVYFCARRETTTVGRYYYAMDYWGQGTSVTVSSASTKGPQVQLQQPGAELVKPGASVKMSCKASGYTFTSYNMHWVKQTPGRGLEWIGAIYPGNGDTSYNQKFKGKATLTADKSSSTAYMQLSSLTSEDSAVYYCARSTYYGGDWYFNVWGAGTTVTVSA
VL: DILLTQTPASLAVSLGQRATISCKASQSVDYDGDSYLNWYQQIPGQPPKLLIYDASNLVSGIPPRFSGSGSGTDFTLNIHPVEKVDAATYHCQQSTEDPWTFGGGTKLEIKRTVAAPQIVLSQSPAILSPSPGEKVTMTCRASSSVSYIHWFQQKPGSSPKPWIYATSNLASGVPVRFSGSGSGTSYSLTISRVEAEDAATYYCQQWTSNPPTFGGGTKLEIKR
notes: Outer AB006, inner AB001; HC vector V1 (wild-type hIgG1 constant), LC vector V2 (kappa constant); also called DVD002H; DVD002L

EC50 [4]: 3.44 nM
B5: AB008 (anti-CD-22 parent antibody) (antibody, IgG1, V domains shown)
VH: QVQLVQSGAEVKKPGSSVKVSCKASGYTFTSYWLHWVRQAPGQGLEWIGYINPRNDYTEYNQNFKDKATITADESTNTAYMELSSLRSEDTAFYFCARRDITTFYWGQGTTVTVSS
VL: DIQLTQSPSSLSASVGDRVTMSCKSSQSVLYSANHKNYLAWYQQKPGKAPKLLIYWASTRESGVPSRFSGSGSGTDFTFTISSLQPEDIATYYCHQYLSSWTFGGGTKLEIKR
notes: HC vector V1 (wild-type hIgG1 constant), LC vector V2 (kappa constant); also called AB008VH; AB008VL

EC50 [5]: 0.77 nM
B6: AB007 (anti-CD-80 parent antibody) (antibody, IgG1, V domains shown)
VH: QVQLQESGPGLVKPSETLSLTCAVSGGSISGGYGWGWIRQPPGKGLEWIGSFYSSSGNTYYNPSLKSQVTISTDTSKNQFSLKLNSMTAADTAVYYCVRDRLFSVVGMVYNNWFDVWGPGVLVTVSS
VL: ESALTQPPSVSGAPGQKVTISCTGSTSNIGGYDLHWYQQLPGTAPKLLIYDINKRPSGISDRFSGSKSGTAASLAITGLQTEDEADYYCQSYDSSLNAQVFGGGTRLTVLG
notes: HC vector V1 (wild-type hIgG1 constant), LC vector V3 (lambda constant); also called AB007VH; AB007VL
